Measured values reported in patent US20260070987A1.

Target: equine FcRn (large alpha subunit p51) / equine beta-2-microglobulin complex, biotinylated (equine) (UniProt P30441)
Experiment: SPR (Biacore), pH 6

Sequence of UniProt P30441 (P30441 21-118, one chain of several): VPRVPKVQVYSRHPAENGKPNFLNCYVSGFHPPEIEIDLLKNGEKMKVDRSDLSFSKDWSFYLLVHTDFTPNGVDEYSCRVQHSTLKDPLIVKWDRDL

Row | Binder | Kd [nM]
1 | equine IgG4 N434L (antibody, part only; not given: variable domains, not shown: another chain or arm of the molecule) constant: ASTTAPKVFPLASHSAATSGSTVALGCLVSSYFPEPVTVSWNSGALTSGVHTFPSVLQSSGLYSLSSMVTVPASSLKSQTYICNVAHPASSTKVDKKIVIKECNGGCPAECLQVGPSVFIFPPKPKDVLMISRTPTVTCVVVDVGHDFPDVQFNWYVDGVETHTATTEPKQEQFNSTYRVVSVLPIQHKDWLSGKEFKCKVNNKALPAPVERTISKPTGQPREPQVYVLAPHRDELSKNKVSVTCLVKDFYPTDIDIEWKSNGQPEPETKYSTTPAQLDSDGSYFLYSKLTVETNRWQQGTTFTCAVMHEALHLHYTEKSVSKSPGK | 48.5
2 | equine IgG1 M252A (antibody, part only; not given: variable domains, not shown: another chain or arm of the molecule) constant: ASTTAPKVFALAPGCGTTSDSTVALGCLVSGYFPEPVKVSWNSGSLTSGVHTFPSVLQSSGFYSLSSMVTVPASTWTSETYICNVVHAASNFKVDKRIEPIPDNHQKVCDMSKCPKCPAPELLGGPSVFIFPPNPKDTLAITRTPEVTCVVVDVSQENPDVKFNWYMDGVEVRTATTRPKEEQFNSTYRVVSVLRIQHQDWLSGKEFKCKVNNQALPQPIERTITKTKGRSQEPQVYVLAPHPDELSKSKVSVTCLVKDFYPPEINIEWQSNGQPELETKYSTTQAQQDSDGSYFLYSKLSVDRNRWQQGTTFTCGVMHEALHNHYTQKNVSKNPGK | 50.3
3 | equine IgG1 T286Q (antibody, part only; not given: variable domains, not shown: another chain or arm of the molecule) constant: ASTTAPKVFALAPGCGTTSDSTVALGCLVSGYFPEPVKVSWNSGSLTSGVHTFPSVLQSSGFYSLSSMVTVPASTWTSETYICNVVHAASNFKVDKRIEPIPDNHQKVCDMSKCPKCPAPELLGGPSVFIFPPNPKDTLMITRTPEVTCVVVDVSQENPDVKFNWYMDGVEVRQATTRPKEEQFNSTYRVVSVLRIQHQDWLSGKEFKCKVNNQALPQPIERTITKTKGRSQEPQVYVLAPHPDELSKSKVSVTCLVKDFYPPEINIEWQSNGQPELETKYSTTQAQQDSDGSYFLYSKLSVDRNRWQQGTTFTCGVMHEALHNHYTQKNVSKNPGK | 17
4 | equine IgG4 N434M (antibody, part only; not given: variable domains, not shown: another chain or arm of the molecule) constant: ASTTAPKVFPLASHSAATSGSTVALGCLVSSYFPEPVTVSWNSGALTSGVHTFPSVLQSSGLYSLSSMVTVPASSLKSQTYICNVAHPASSTKVDKKIVIKECNGGCPAECLQVGPSVFIFPPKPKDVLMISRTPTVTCVVVDVGHDFPDVQFNWYVDGVETHTATTEPKQEQFNSTYRVVSVLPIQHKDWLSGKEFKCKVNNKALPAPVERTISKPTGQPREPQVYVLAPHRDELSKNKVSVTCLVKDFYPTDIDIEWKSNGQPEPETKYSTTPAQLDSDGSYFLYSKLTVETNRWQQGTTFTCAVMHEALHMHYTEKSVSKSPGK | 43.4
5 | equine IgG4 N434P (antibody, part only; not given: variable domains, not shown: another chain or arm of the molecule) constant: ASTTAPKVFPLASHSAATSGSTVALGCLVSSYFPEPVTVSWNSGALTSGVHTFPSVLQSSGLYSLSSMVTVPASSLKSQTYICNVAHPASSTKVDKKIVIKECNGGCPAECLQVGPSVFIFPPKPKDVLMISRTPTVTCVVVDVGHDFPDVQFNWYVDGVETHTATTEPKQEQFNSTYRVVSVLPIQHKDWLSGKEFKCKVNNKALPAPVERTISKPTGQPREPQVYVLAPHRDELSKNKVSVTCLVKDFYPTDIDIEWKSNGQPEPETKYSTTPAQLDSDGSYFLYSKLTVETNRWQQGTTFTCAVMHEALHPHYTEKSVSKSPGK | 39.4
6 | equine IgG4 N434Q (antibody, part only; not given: variable domains, not shown: another chain or arm of the molecule) constant: ASTTAPKVFPLASHSAATSGSTVALGCLVSSYFPEPVTVSWNSGALTSGVHTFPSVLQSSGLYSLSSMVTVPASSLKSQTYICNVAHPASSTKVDKKIVIKECNGGCPAECLQVGPSVFIFPPKPKDVLMISRTPTVTCVVVDVGHDFPDVQFNWYVDGVETHTATTEPKQEQFNSTYRVVSVLPIQHKDWLSGKEFKCKVNNKALPAPVERTISKPTGQPREPQVYVLAPHRDELSKNKVSVTCLVKDFYPTDIDIEWKSNGQPEPETKYSTTPAQLDSDGSYFLYSKLTVETNRWQQGTTFTCAVMHEALHQHYTEKSVSKSPGK | 17.7
